Results reported in publication PMC5063613 (Molecular Biology of the Cell, 2016).

Biological target: T1, GFP-C9orf72 (human, UniProt Q96LT7-1 1-481)
T1 sequence: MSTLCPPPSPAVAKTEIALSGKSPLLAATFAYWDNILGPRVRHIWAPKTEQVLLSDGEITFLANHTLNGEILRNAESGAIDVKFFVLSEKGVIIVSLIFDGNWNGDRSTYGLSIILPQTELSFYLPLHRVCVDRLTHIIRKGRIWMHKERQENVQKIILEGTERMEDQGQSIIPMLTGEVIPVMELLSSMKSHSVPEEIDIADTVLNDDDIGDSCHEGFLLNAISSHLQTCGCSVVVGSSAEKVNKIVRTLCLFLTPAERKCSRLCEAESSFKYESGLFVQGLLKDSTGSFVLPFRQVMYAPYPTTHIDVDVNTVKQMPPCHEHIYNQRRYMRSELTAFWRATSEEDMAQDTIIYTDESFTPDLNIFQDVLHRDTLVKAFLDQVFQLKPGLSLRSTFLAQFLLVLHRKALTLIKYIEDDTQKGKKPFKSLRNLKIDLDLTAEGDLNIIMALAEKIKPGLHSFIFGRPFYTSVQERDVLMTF
Assay: co-IP

stoichiometry N: ~1
B1: SMCR8-tdTomato (natural protein)
chain: MISAPDVVAFTKEEEYEEEPYNEPALPEEYSVPLFPFASQGANPWSKLSGAKFSRDFILISEFSEQVGPQPLLTIPNDTKVFGTFDLNYFSLRIMSVDYQASFVGHPPGSAYPKLNFVEDSKVVLGDSKEGAFAYVHHLTLYDLEARGFVRPFCMAYISADQHKIMQQFQELSAEFSRASECLKTGNRKAFAGELEKKLKDLDYTRTVLHTETEIQKKANDKGFYSSQAIEKANELASVEKSIIEHQDLLKQIRSYPHRKLKGHDLCPGEMEHIQDQASQASTTSNPDESADTDLYTCRPAYTPKLIKAKSTKCFDKKLKTLEELCDTEYFTQTLAQLSHIEHMFRGDLCYLLTSQIDRALLKQQHITNFLFEDFVEVDDRMVEKQESIPSKPSQDRPPSSSLEECPIPKVLISVGSYKSSVESVLIKMEQELGDEEYKEVEVTELSSFDPQENLDYLDMDMKGSISSGESIEVLGTEKSTSVLSKSDSQASLTVPLSPQVVRSKAVSHRTISEDSIEVLSTCPSEALIPDDFKASYPSAINEEESYPDGNEGAIRFQASISPPELGETEEGSIENTPSQIDSSCCIGKESDGQLVLPSTPAHTHSDEDGVVSSPPQRHRQKDQGFRVDFSVENANPSSRDNSCEGFPAYELDPSHLLASRDISKTSLDNYSDTTSYVSSVASTSSDRIPSAYPAGLSSDRHKKRAGQNALKFIRQYPFAHPAIYSLLSGRTLVVLGEDEAIVRKLVTALAIFVPSYGCYAKPVKHWASSPLHIMDFQKWKLIGLQRVASPAGAGTLHALSRYSRYTSILDLDNKTLRCPLYRGTLVPRLADHRTQIKRGSTYYLHVQSMLTQLCSKAFLYTFCHHLHLPTHDKETEELVASRQMSFLKLTLGLVNEDVRVVQYLAELLKLHYMQESPGTSHPMLRFDYVPSFLYKI
